Assay results taken from the supplement of paper PMC7877785.
± gives the uncertainty stated by the source.

Assay: self-splicing fitness, log relative to wild type (ln ratio); higher = more splicing; Tetrahymena group I intron in knt gene, E. coli kanamycin selection, DiMSum; sequences stand for … in CUCUCU…GGAGGGAAAAGUUAUCAGGCAUGCACCUGGUAGCUAGUCUUUAAACCAAUAGAUUGCAUCGGUUUAAAAGGCAAGACCGUCAAAUUGCGGGAAAGGGGUCAACAGCCGUUCAGUACCAAGUCUCAGGGGAAACUUUGAGAUGGCCUUGCAAAGGGUAUGGUAAUAAGCUGACGGACAUGGUCCUAACCACGCAGCCAAGUCCUAAGUCAACAGAUCUUCUGUUGAUAUGGAUGCAGUUCACAGACUAAAUGUCGGUCGGGGAAGAUGUAUUCUUCUCAUAAGAUAUAGUCGGACCUCUCCUUAAUGGGAGCUAGCGGAUGAAGUGAUGCAACACUGGAGCCGCUGGGAACUAAUUUGUAUGCGAAAGUAUAUUGAUUAGUUUUGGAGUACUCGUGGUCG
Outline: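 DiMSum derived fitness as the error-weighted combination of fold changes across replicates, kanamycin versus no kanamycin, normalised to wild type. E. coli BL21(DE3) held the library, which randomised all eight P1ex-region intron nucleotides within the knt kanamycin-resistance gene on pET-22b(+). Six replicate transformations grew overnight at 37°C or 30°C on LB agar with or without 25 μg/mL kanamycin, also containing 100 μg/mL carbenicillin, 50 μM IPTG and 0.2% rhamnose, and pooled colonies were amplicon-sequenced on an Illumina HiSeq 2500.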

Sequence	self-splicing fitness (ln) (30 °C)	self-splicing fitness (ln) (37 °C)
UAACAGCAAUAUUACGAAAC	-4.62 ± 0.38	-2.75 ± 0.36
UAACAGCAAUAUUACGAACU	-0.722 ± 0.11	-0.651 ± 0.15
UAACAGCAAUAUUACGACCA	-0.808 ± 0.08	0.224 ± 0.11
UAACAGCAAUAUUACGACUA	-0.142 ± 0.049	-0.212 ± 0.057
UAACAGCAAUAUUACGAUCG	-0.667 ± 0.07	-0.00548 ± 0.098
UAACAGCAAUAUUACGAUUC	-1.68 ± 0.1	-1.01 ± 0.12
UAACAGCAAUAUUACGCACU	-1.26 ± 0.06	0.231 ± 0.087
UAACAGCAAUAUUACGCAGA	-2.78 ± 0.14	-1.47 ± 0.087
UAACAGCAAUAUUACGCAUC	-4.63 ± 0.22	-2.51 ± 0.17
UAACAGCAAUAUUACGCCAU	-3.93 ± 0.22	-2.11 ± 0.17
UAACAGCAAUAUUACGCCGG	-0.84 ± 0.067	-0.697 ± 0.091
UAACAGCAAUAUUACGCCUU	-1.48 ± 0.074	-0.968 ± 0.094
UAACAGCAAUAUUACGCGAC	-3.97 ± 0.29	-2.05 ± 0.16
UAACAGCAAUAUUACGCGAG	-0.783 ± 0.052	-0.508 ± 0.066
UAACAGCAAUAUUACGCGAU	-3.97 ± 0.32	-2.36 ± 0.23
UAACAGCAAUAUUACGCUUU	-3.43 ± 0.14	-1.82 ± 0.13
UAACAGCAAUAUUACGGAUA	-0.969 ± 0.088	-0.486 ± 0.1
UAACAGCAAUAUUACGGCGA	-0.267 ± 0.077	-0.198 ± 0.08
UAACAGCAAUAUUACGGCUC	-1.77 ± 0.1	-0.836 ± 0.14
UAACAGCAAUAUUACGGGAG	-2.3 ± 0.1	-1.62 ± 0.096
UAACAGCAAUAUUACGGGGG	-3.25 ± 0.27	-1.9 ± 0.17
UAACAGCAAUAUUACGGUCU	-1.5 ± 0.068	-0.783 ± 0.075
UAACAGCAAUAUUACGUGGU	-2.87 ± 0.12	-2.93 ± 0.2
UAACAGCAAUAUUACGUUAA	-3.25 ± 0.2	-1.6 ± 0.12
UAAGAGCAAUAUUACGAAAC	–	-2.99 ± 0.37

Sequence	self-splicing fitness (ln) (30 °C)	self-splicing fitness (ln) (37 °C)
UAAGAGCAAUAUUACGACAG	-3.17 ± 0.25	-2.34 ± 0.23
UAAGAGCAAUAUUACGACUU	-2.79 ± 0.18	-0.528 ± 0.15
UAAGAGCAAUAUUACGAGGU	-3.48 ± 0.23	-2.56 ± 0.27
UAAGAGCAAUAUUACGAUUA	-0.804 ± 0.1	0.2 ± 0.1
UAAGAGCAAUAUUACGCCCA	-2.62 ± 0.26	-2.09 ± 0.41
UAAGAGCAAUAUUACGCCCU	-3.1 ± 0.31	-2.01 ± 0.41
UAAGAGCAAUAUUACGCCGG	-2.97 ± 0.31	-1.72 ± 0.26
UAAGAGCAAUAUUACGCGGU	-3.3 ± 0.3	-2.15 ± 0.34
UAAGAGCAAUAUUACGGAUC	-3.68 ± 0.46	-1.64 ± 0.31
UAAGAGCAAUAUUACGGCAA	-2.23 ± 0.18	-2.03 ± 0.14
UAAGAGCAAUAUUACGGCAU	-2.3 ± 0.39	-1 ± 0.3
UAAGAGCAAUAUUACGGGAG	-3.33 ± 0.24	-1.83 ± 0.19
UAAGAGCAAUAUUACGGGGU	-2.67 ± 0.19	-1.44 ± 0.49
UAAGAGCAAUAUUACGUAAU	-3.14 ± 0.15	-3.17 ± 0.29
UAAGAGCAAUAUUACGUACG	-1.42 ± 0.16	-1.73 ± 0.17
UAAGAGCAAUAUUACGUACU	-2.79 ± 0.25	-0.993 ± 0.2
UAAGAGCAAUAUUACGUCGA	-3.95 ± 0.3	-1.74 ± 0.17
UAAGAGCAAUAUUACGUUCC	–	-1.98 ± 0.39
UAAUAGCAAUAUUACGAAGC	–	-1.83 ± 0.33
UAAUAGCAAUAUUACGACGU	-3.74 ± 0.33	-1.76 ± 0.18
UAAUAGCAAUAUUACGAUAU	-3.99 ± 0.47	-1.52 ± 0.25
UAAUAGCAAUAUUACGAUCA	-0.744 ± 0.085	0.387 ± 0.1
UAAUAGCAAUAUUACGCAAC	-2.64 ± 0.4	-1.73 ± 0.37
UAAUAGCAAUAUUACGCGCU	0.173 ± 0.2	-0.565 ± 0.18
UAAUAGCAAUAUUACGCGGA	–	-1.82 ± 0.19

Sequence	self-splicing fitness (ln) (30 °C)	self-splicing fitness (ln) (37 °C)
UAAUAGCAAUAUUACGCGUG	-1.37 ± 0.1	-0.125 ± 0.12
UAAUAGCAAUAUUACGCUCU	-1.03 ± 0.14	-0.42 ± 0.18
UAAUAGCAAUAUUACGGAAG	-3.02 ± 0.21	-0.76 ± 0.16
UAAUAGCAAUAUUACGGACA	-1.12 ± 0.17	-0.393 ± 0.16
UAAUAGCAAUAUUACGGACC	–	-1.42 ± 0.29
UAAUAGCAAUAUUACGGAUG	-1.58 ± 0.08	-0.737 ± 0.087
UAAUAGCAAUAUUACGGCAA	-1.99 ± 0.14	-0.69 ± 0.12
UAAUAGCAAUAUUACGGCAG	-1.08 ± 0.1	-0.425 ± 0.13
UAAUAGCAAUAUUACGGCGU	-2.6 ± 0.19	-1.6 ± 0.24
UAAUAGCAAUAUUACGGGAA	-2.04 ± 0.21	-2.11 ± 0.26
UAAUAGCAAUAUUACGGGAU	-4.36 ± 0.46	-2.49 ± 0.22
UAAUAGCAAUAUUACGGGGA	-1.91 ± 0.15	-2.65 ± 0.34
UAAUAGCAAUAUUACGGGUA	-1.9 ± 0.17	-0.433 ± 0.14
UAAUAGCAAUAUUACGGUCG	-0.872 ± 0.1	0.313 ± 0.11
UAAUAGCAAUAUUACGUAAC	–	-2.03 ± 0.38
UAAUAGCAAUAUUACGUAUG	-1.88 ± 0.12	-0.28 ± 0.13
UAAUAGCAAUAUUACGUGCC	-3.27 ± 0.43	-1.47 ± 0.31
UAAUAGCAAUAUUACGUGGA	-2.97 ± 0.23	-2.33 ± 0.24
UAAUAGCAAUAUUACGUUAC	-4.32 ± 0.34	-2.2 ± 0.23
UAAUAGCAAUAUUACGUUCA	-0.833 ± 0.098	-0.14 ± 0.1
UAAUAGCAAUAUUACGUUCC	–	-1.52 ± 0.48
UACAAGCAAUAUUACGAACU	-1.48 ± 0.089	-0.628 ± 0.1
UACAAGCAAUAUUACGAAGG	-2.52 ± 0.11	-1.38 ± 0.12
UACAAGCAAUAUUACGACAA	-0.986 ± 0.11	-0.403 ± 0.11
UACAAGCAAUAUUACGAGCG	-0.155 ± 0.074	-0.0756 ± 0.099

Sequence	self-splicing fitness (ln) (30 °C)	self-splicing fitness (ln) (37 °C)
UACAAGCAAUAUUACGAUAA	-1.93 ± 0.13	-0.276 ± 0.12
UACAAGCAAUAUUACGAUAU	-2.75 ± 0.15	-1.66 ± 0.19
UACAAGCAAUAUUACGAUGG	-1.37 ± 0.079	-0.712 ± 0.085
UACAAGCAAUAUUACGAUUU	-1.76 ± 0.066	-0.754 ± 0.084
UACAAGCAAUAUUACGCAAA	-2.24 ± 0.14	-1.51 ± 0.14
UACAAGCAAUAUUACGCACU	-0.66 ± 0.077	-0.133 ± 0.09
UACAAGCAAUAUUACGCUCC	-2.38 ± 0.17	-0.668 ± 0.17
UACAAGCAAUAUUACGCUUU	-3.73 ± 0.17	-2.29 ± 0.16
UACAAGCAAUAUUACGGCUC	-1.46 ± 0.088	-0.468 ± 0.11
UACAAGCAAUAUUACGGGGU	-3.88 ± 0.15	-2.58 ± 0.15
UACAAGCAAUAUUACGGGUC	-3.32 ± 0.16	-2.78 ± 0.16
UACAAGCAAUAUUACGGUCC	-1.38 ± 0.18	-1.34 ± 0.18
UACAAGCAAUAUUACGGUGU	-3.91 ± 0.17	-1.71 ± 0.12
UACAAGCAAUAUUACGUAAU	-2.72 ± 0.18	-0.0213 ± 0.15
UACAAGCAAUAUUACGUCAG	-2.54 ± 0.14	-2 ± 0.15
UACAAGCAAUAUUACGUCUG	-0.521 ± 0.071	0.299 ± 0.08
UACAAGCAAUAUUACGUUUA	-1.33 ± 0.07	-0.605 ± 0.072
UACCAGCAAUAUUACGAAGA	-1.63 ± 0.097	-0.519 ± 0.11
UACCAGCAAUAUUACGACCC	-2.84 ± 0.5	-1.02 ± 0.44
UACCAGCAAUAUUACGACUC	-2.5 ± 0.18	-1.65 ± 0.2
UACCAGCAAUAUUACGAUAC	–	-2.39 ± 0.19
UACCAGCAAUAUUACGAUCC	-1.4 ± 0.15	-1.84 ± 0.26
